Several values for one entry are separate records, joined by “and”; a condition that tells them apart may be missing. Equal values may be shown once. Read-outs that look alike come from different tables or passages of the source. Each block holds one binder with its values, some of them ahead of it. Non-standard residues stand in square brackets, D forms with d. No end group written: not given here. Me2a = asymmetric dimethyl (on arginine); pT = C[C@@H](OP(=O)(O)O)[C@H](N)C(=O)O
B1: KDM4A-DTD N931D (domain or fragment)
chain: ALQSITAGQKVISKHKNGRFYQCEVVRLTTETFYEVDFDDGSFSDNLYPEDIVSQDCLQFGPPAEGEVVQVRWTDGQVYGAKFVASHPIQMYQVEFEDGSQLVVKRDDVYTLDEELP
B2: KDM4A double tudor domain (KDM4A-DTD), HaloTag-tagged, wild type (domain or fragment)
chain: ALQSITAGQKVISKHKNGRFYQCEVVRLTTETFYEVNFDDGSFSDNLYPEDIVSQDCLQFGPPAEGEVVQVRWTDGQVYGAKFVASHPIQMYQVEFEDGSQLVVKRDDVYTLDEELP
B3: KDM4A-DTD triple mutant N931D/D939R/D945R (DRR) (domain or fragment)
chain: ALQSITAGQKVISKHKNGRFYQCEVVRLTTETFYEVDFDDGSFSRNLYPERIVSQDCLQFGPPAEGEVVQVRWTDGQVYGAKFVASHPIQMYQVEFEDGSQLVVKRDDVYTLDEELP
modifications: HaloTag-Alexa 660 ligand conjugated to the HaloTag in the far western
B4: KDM4C double tudor domain (KDM4C-DTD), HaloTag-tagged, wild type (domain or fragment)
chain: KVISVGQTVITKHRNTRYYSCRVMAVTSQTFYEVMFDDGSFSRDTFPEDIVSRDCLKLGPPAEGEVVQVKWPDGKLYGAKYFGSNIAHMYQVEFEDGSQIAMKREDIYTLDEELP
B5: KDM4B double tudor domain (KDM4B-DTD), HaloTag-tagged, wild type (domain or fragment)
chain: RAVSLGQVVITKNRNGLYYRCRVIGAASQTCYEVNFDDGSYSDNLYPESITSRDCVQLGPPSEGELVELRWTDGNLYKAKFISSVTSHIYQVEFEDGSQLTVKRGDIFTLEEELP

Experiments:
Assay in all cases: FP
[1] = target: B1
[2] = target: B4
[3] = target: B5
[4] = target: H3K9me3
[5] = target: H3K27me3
[6] = target: H3T3phK4me3 peptide (UniProt P68431, phosphothreonine at T3; trimethyl-lysine at K4)
[7] = target: H3K27me3; remark: listed apart in the source
[8] = target: H3K27me3; remark: listed apart in the source
[9] = target: T1, ING2-PHD
T1 chain: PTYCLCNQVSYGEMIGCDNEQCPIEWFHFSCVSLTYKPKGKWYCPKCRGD

[10] = target: B3
[11] = target: T2, KDM4A-DTD N940A (human, UniProt O75164 895-1011, N940A)
T2 sequence: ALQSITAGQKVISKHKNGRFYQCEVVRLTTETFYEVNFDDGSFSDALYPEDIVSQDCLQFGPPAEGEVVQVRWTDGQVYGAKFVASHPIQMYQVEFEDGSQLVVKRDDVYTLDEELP

[12] = target: T3, KDM4A-DTD D945S (human, UniProt O75164 895-1011, D945S)
T3 sequence: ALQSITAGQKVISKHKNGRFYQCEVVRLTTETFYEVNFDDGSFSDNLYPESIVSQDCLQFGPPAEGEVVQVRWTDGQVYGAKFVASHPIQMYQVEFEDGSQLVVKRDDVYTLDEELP

[13] = target: B2
[14] = target: B4
[15] = target: B5
[16] = target: H3K9me3; remark: listed apart in the source
[17] = target: KDM4B-DTD N960A (human, UniProt O94953 917-1031, N960A)
[18] = target: KDM4B-DTD S965D (human, UniProt O94953 917-1031, S965D)
[19] = target: T4, KDM4B-DTD N951G (Homo sapiens)
T4 chain: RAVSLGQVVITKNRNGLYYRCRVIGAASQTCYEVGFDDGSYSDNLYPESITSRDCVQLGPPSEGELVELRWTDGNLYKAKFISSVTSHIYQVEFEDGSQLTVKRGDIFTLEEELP

[20] = target: T5, KDM4B-DTD N951M (Homo sapiens)
T5 chain: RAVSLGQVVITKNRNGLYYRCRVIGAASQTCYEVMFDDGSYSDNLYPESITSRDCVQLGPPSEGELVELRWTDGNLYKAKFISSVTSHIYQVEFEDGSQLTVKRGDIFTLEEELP

Chain of KDM4B-DTD N960A (O94953 917-1031 N960A): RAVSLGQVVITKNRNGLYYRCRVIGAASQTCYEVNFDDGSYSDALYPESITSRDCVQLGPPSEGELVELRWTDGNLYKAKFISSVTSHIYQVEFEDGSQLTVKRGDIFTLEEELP
Chain of KDM4B-DTD S965D (O94953 917-1031 S965D): as the sequence (O94953 917-1031 N960A) above, with A44N, S49D counted along it

Binder: B1
Kd [4]: 83.3 µM
Kd [5]: 98.6 µM

Binder: B2
Kd [6]: 122 µM
Kd [7]: 122 µM

Binder: B3
Kd [8]: 570 µM

Binder: ARTK(Me3)QTARKSTGGK (also: fluorescein label, end not given here) [H3K4me3 peptide, fluorescein-labelled]
Kd [1]: 2.7 µM
Kd [9]: 5.8 µM
Kd [10]: 370 µM
Kd [11]: 74.1 µM
Kd [12]: 151 µM
Kd [13]: 2.7 µM

Binder: B4
Kd [7]: 104 µM

Binder: B5
Kd [16]: 800 µM
Kd [7]: 140 µM

Binder: ARKSTGGK(Me3)APRKQLATK (also: fluorescein label, end not given here) [H3K14me3 peptide, fluorescein-labelled]
Kd [10]: 158 µM
Kd [14]: 166 µM
Kd [15]: 165 µM
Kd [13]: 108 µM

Binder: RKQLATK(Me3)AARKSAPAT (also: fluorescein label, end not given here) [H3 (17-32) K23me3 peptide, fluorescein-labelled]
Kd [9]: 257 µM
Kd [17]: 107 µM
Kd [18]: 16.4 µM
Kd [19]: 32.6 µM
Kd [20]: 41.4 µM
Kd [14]: 73.6 µM

Other lines, results leading:

Kd [1]: 6 µM
Kd [2]: 43.7 µM
Kd [3]: 53.1 µM
Binder: RKQLATK(Me3)AAR(Me2a)KSAPAT (also: fluorescein label, end not given here) [H3K23me3R26me2a peptide, fluorescein-labelled]

Kd [1]: 2.6 µM
Kd [2]: 180 µM
Kd [3]: 35.3 µM
Binder: RKQLATK(Me2)AARKSAPAT (also: fluorescein label, end not given here) [H3K23me2 peptide (dimethylated H3K23), fluorescein-labelled]

Kd [1]: 27.7 µM
Kd [2]: 72.5 µM
Kd [3]: 180 µM
Binder: RKQLATK(Me3)AAAKSAPAT (also: fluorescein label, end not given here) [H3K23me3R26A peptide, fluorescein-labelled]

Kd [1]: 18.7 µM
Kd [2]: 507 µM
Kd [3]: 130 µM and 259 µM
Binder: RKQLA[pT]K(Me3)AARKSAPAT (also: fluorescein label, end not given here) [H3T22phK23me3 peptide, fluorescein-labelled]

Kd [14]: 58.7 µM
Kd [15]: 60 µM
Binder: AKRHRK(Me3)VLRDN (also: fluorescein label, end not given here) [H4K20me3 peptide, fluorescein-labelled]

Kd [1]: 31.1 µM
Kd [2]: 520 µM
Kd [3]: 155 µM
Binder: RKQLATK(Me)AARKSAPAT (also: fluorescein label, end not given here) [H3K23me1 peptide (monomethylated H3K23), fluorescein-labelled]
